The record followed here is the nanobody polyreactivity screen of Harvey et al. (2022).

This data set can be described thus: yeast display, Sf9 membrane polyspecificity reagent, FACS + sequencing; frameworks hold sequencing errors. In short, it runs like this: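 Nanobodies came from a synthetic yeast display library in Saccharomyces cerevisiae BJ5465, induced with galactose for 36–48 hours and stained for 1 hour at 4 °C with 10% biotinylated, detergent-solubilized Sf9 membrane reagent. Cells were enriched on streptavidin microbeads and then FACS-sorted, with low and high (top ~1%) gates set on anti-HA fluorescence for expression and streptavidin fluorescence for reagent binding. Each polyreactivity label reflects the gate a clone came from. Genes were amplified by colony PCR, sequenced by MiSeq 2 × 250 and filtered by CDR length.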
Take “QVQLLESGGGLVQAGGSLRLSCAASGSTLARYTMGWSRQAPGKERELVATIDFGGVNTYYADSVKGRFTISRDNAKNTVYLQMNSLKPEDTAVYYCAVDNPFIWFFGPDEYWGQGTQVTVSS”: the “polyreactivity (PSR sort gate)” value is given as “low polyreactivity”.

Take “QVQLLESGGGLVQAGGSLRLSCAASGSTLKLNAMGWYRQAPGKDRELVAAITRSGGSTNYADSVKGRFTISRDNAKNTVSLQMNSLKPEDTAVYDCAADVLWDEFGYWGQGTQVTVSS”: the “polyreactivity (PSR sort gate)” value is “low polyreactivity”.

Turning to “QVQLLESGGGLVQAGGSLRLSCAASGSTLLQYAMGWYRQAPGKEREFVAAISASGARTYYADSVKGRFTISRDNAKNTVYLQMNSLKPEETAVYYCAALTQRSSFDYWGQGTQVTVSS”, the “polyreactivity (PSR sort gate)” value is on record as “high polyreactivity”.

As for “QVQLLESGGGLVQAGGSLRLSCAASGTNFDYYLMGWYRQAPGKERELVAAISWSGASTYYADSVKGRFTISRDNAKNTVYLQMNSLKPEDSAVYYCAADYCVKTLIDYDYWGEGTQVTVSS”, the “polyreactivity (PSR sort gate)” value is reported as “low polyreactivity”.

As to “QVQLLESGGGLVQAGGSLRLSCAASGYTFARYAMGWYRQAPGQERELVAAITSSGGSTYYADSVKGRFTISRDNAKNTVYLQMNSLKPEDTAVYYCNARGFQKSDPRGYLILNYWGQGTQVTVSS”, the “polyreactivity (PSR sort gate)” value is on record as “high polyreactivity”.

With “QVQLLESGGGLVQAGGSLRLSCAASRSTFPGYAMGWYRQAPGKETELVAAITWSGVTTYYADSVKGRFTISRDNAKYTVYLQMNSLKPEDTAVYYCATGTLYSDGAIYGYWGQGTQVTVSS”, the “polyreactivity (PSR sort gate)” value is “low polyreactivity”.

“QVQLLESGGGLVQAGGSLRLSCASSGRTFVRYGMGWSRQAPGKERELVAAITGSGSRTYYADSVKGRFTISRDNAKNTVYLQMNSLIPKDTAVYYCAGRGQGGAGDPRYPVYYWGQGTQVTVSS”: the “polyreactivity (PSR sort gate)” value was “high polyreactivity”.

In the case of “QVQLLESGGGLVQAGGSLRLSCASSGRTYWYYAMGWYRQAPGKERELVATITRSTGSTYYADSVKGRFTISRDNAKNTGYLQMNSLKPEDTAVYYCARLYYFNGDYWGQGTQVTVSS”, the “polyreactivity (PSR sort gate)” value is reported as “high polyreactivity”.

Take “QVQLLESGGGLVQAGGSLRLSCASSGSIFFRNAMVWYRQAPGKEREYVAAITGSSVSTYYADSVKGRFTISRDNAKNTVYLQMNSLKPEDTAVYYCAVRKWIGYNPYDDWGQGTQVTVSS”: the “polyreactivity (PSR sort gate)” value is reported as “high polyreactivity”.

On to “QVQLLESGGGLVQAGGSLRLSCMASGSILGDRMSWYRQAPGKEHELVATIYDGGITCYADSMKGRFTISRDNAKNTVYLQMNSLRPEDTAVYYCGASFEGYRYHVYCGQGTQVTVSS”, for which the “polyreactivity (PSR sort gate)” value is given as “low polyreactivity”.

Regarding “QVQLLESGGGLVQAGGSLRVSCAASGFTFSRNVMGWYRQAPGKERELVAAITSGSTYYADSVKGRFTISRDNAKNTVYLQMNRLKPEDTAVYYCAKRGRLRNYDYWGQGTQVTVSS”, the “polyreactivity (PSR sort gate)” value is “high polyreactivity”.

As for “QVQLLESGGGLVQAGGSRRLSCASSGITFAFYAMGWYRQAPGKESELVAAISWSGTRTYYADSVKGRFTISRDNAKNTVYLQMNRLKPEDTAVYYCAAVYQAGDKLYDYWGQGTQVTVSS”, the “polyreactivity (PSR sort gate)” value was “low polyreactivity”.

As for “QVQLLESGGGLVQARGSLRLSCAASARTIFKNAMAWYRQAPGKERELVARISWNGGDSTYYADSVTGRFTISRDNAKNTVYLQMNSLKPEDTAVYSCAADTSYRPGGSRQGYGYWGQGTQVTVSS”, the “polyreactivity (PSR sort gate)” value was “low polyreactivity”.

As to “QVQLLESGGGLVQPGGSLRLSCAASGSTFDSYVKGWYRKAPGKERELVAANSSDDSTYYADSVKGRFTISRDNAKNTVYLQMISLKPEDTAVYYCAATNFRDYYCSWNYYYWGQGTQVTVSS”, the “polyreactivity (PSR sort gate)” value is on record as “low polyreactivity”.

Turning to “QVQLLESGGGLVQPGGSLRLSCAASGSTFIGYAMGWYRQAPGKETELVAAISWSGGRTYYADSVKGRFTISRDNAKNTVYLQMNSLKAEDTAVYYCNTVPYRISVQFNYWGQGTQVTVSS”, the “polyreactivity (PSR sort gate)” value is reported as “high polyreactivity”.

Take “QVQLLESGGGLVQPGGSLRLSCAASGSTFYDYAMGWYRTAPGKEREFVADIYSNGGSTYYAHSVKGRFTISRDNANYTVYLQMNSLKPEDTAVYYCASVLRPRQGRRYDYWGQGTQVTVSS”: the “polyreactivity (PSR sort gate)” value was “low polyreactivity”.

Turning to “QVQLLESGGMVQAGGLRLSCAASGSVSYQEAMGWYRQAPGKERELVATISFGANTNYADSVKGRFTISRDNAKNTVYLQMNSLKPEDTAVYYCAAESLFYDYYGYWGQGTQVNVSS”, the “polyreactivity (PSR sort gate)” value is given as “low polyreactivity”.

Turning to “QVQLLESGGRLVQAGGSLRLSCAASGSTYNQYDMGWYRQAPGKERELVAAISTNGGRTYYADSVKGRFTISRDNAKNTVYLLMNSLKPEYTAVYYCNRAGRGRWSNMDHWGQGTQVTVSS”, the “polyreactivity (PSR sort gate)” value is recorded as “high polyreactivity”.

Take “QVQLLESGRGLVQEGGSLRLSCAASGFTFTAYAMGWYRQAPGKERELVAVISVRGGRTRYADSVKGRFTLSRDNAKNTVYLQMNSLKPEDTAVYYCDARYRPYSGSPQYDYWGQGTQVTVSS”: the “polyreactivity (PSR sort gate)” value was “high polyreactivity”.

As for “QVQLLESGVCLVQAGGSLRLSCAASGFTFGVYAMGWYRQAPGKERELVAAISTTVGSTYYADSVKGRFTISRDNAKKTVYLQMNSLKPEDTAVYYCAAEYTGYINYYIYEYWGQGTQVTVSS”, the “polyreactivity (PSR sort gate)” value was “low polyreactivity”.

In the case of “QVQLLESRGGLVQAGGSLRLSCPASGITFSRCAMGWYRQAPGKERELVAAITSGGRTNYADSVKGRFTISRDNATNTVYLQMISLKPEDTAVYYCAASYYYLSWRMDYWGQGTQVTVSS”, the “polyreactivity (PSR sort gate)” value is on record as “high polyreactivity”.
